Data published in a protein production outcome set (Wang et al. 2014).

Experiment: label from the status in PepcDB records
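Also: failed if final PepcDB status was selected cloned or expressed and not failed if soluble or beyond.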

| Sequence | protein production |
| --- | --- |
| MRSMLQDSLVLLDYLRGMLLHNEELWLLLFPVMIIIELPLYLLVLTGIFRWSYMREEPELKRFPSVSFVITCYGEGEAIGITIDTLVEQIYPGHIEILAVVDGAVQNQDTYKAALNGERRHTGVRNRKVRVLPKWQRGGRVSTLNAGLSMASGEIVINVDGDTSFDNDMVFTMMKQFADKNVIASGGALRVRNHNANLLTKMQSLEYMLSMQAGKTGMATWGVLNNISGAFGAFRKNLLKQVGGWDTHTAEDLDLTMRLKQYKCRYPDNKLAFSTHSIGHTDVPDTLKGLVLQRLRWDGDLLFLFLRKHNEGLSPRLLGWGNFVFTLAYGVIQNVLLPLLVVIFSVYMVIVYPLKFVLALMLMLYFVYLFLSALIFVVYIGLVSERKKEDLKSVKWLFLYPVYQFFMRLITAFSMVNEVVRRSHEESSMAPWWVLKRGKKF | failed |
| MRSTEVGRVVEDFIVLPPTPKSKWKLSDFELLHKLGGGNYGDVHLASVKDCNFVCALKRLSIKKLADFDIATQLRREIEIAFNTRHKYLLRTYAYFFDETDIYLIMEPCSNGMLYTELNRVKCFAPPTAARYVAQLAEALLYLHQHHILHRDIKPENILLDHNNNIKLADFGWSVHDPDNRRKTSCGTPEYFPPEIVGRQAYDTSADLWCLGIFCYELLVGKTPFVGKDTDQICKNIHSMHFKIPENIPSEAKDLIANLLLRDGSRRLALHRVVNHQFLLKYYYLPNNLQPPTGKRPRLDAEPTAGKEN | failed |
| MRTDDSALKNLGKGRESTTLEMKHRELCSGKTIDLGKKMRRALVLDNIRVQSLQLKIKAMTSSTTEQSVSETQIPLTSGIKLESLNYIVTVELGGKNMSLIVDTGSDLTWVQCQPCRSCYNQQGPLYDPSVSSSYKTVFCNSSTCQDLVAATSNSGPCGGNNGVVKTPCEYVVSYGDGSYTRGDLASESILLGDTKLENFVFGCGRNNKGLFGGSSGLMGLGRSSVSLVSQTLKTFNGVFSYCLPSLEDGASGSLSFGNDSSVYTNSTSVSYTPLVQNPQLRSFYILNLTGASIGGVELKSSSFGRGILIDSGTVITRLPPSIYKAVKIEFLKQFSGFPTAPGYSILDTCFNLTSYEDISIPIIKMIFQGNAELEVDVTGVFYFVKPDASLVCLALASLSYENEVGIIGNYQQKNQRVIYDTTQERLGIVGENCRV | failed |
| MRTIYVIGIGTGSPEFLTLQAISGLRHAQAIVALDKGEQKSDLLALRQKIVDTHAPGTPIYAVTDPERDRNPDNYEEEVRRWHAERAHLLASTIRERTPDDGAVAFLVWGDPSLYDSTLRIIEHMRNLEDLHADVKVIPGITAVQVLTAEHGILINRIGEAIHITTGRNLPETSAKDRRNCVVMLDGKTAWQDVATEHTYMWWGAFLGTEQQVLRKGYVHEIGAQVAELKQQLRTEHGWIMDTYLLRELD | not failed |
| MRTLKVQALWDGEAGVWVAESDDVPGLATEAATLEELLAKLAVMVPELLEENGVALELPVELRLEATRPLVFS | not failed |
| MRTLNTSAMDGTGLVVERDFSVRILTACFLSLLILSTLLGNTLVCAAVIRFRHLRSKVTNFFVISLAVSDLLVAVLVMPWKAVAEIAGFWPFGSFCNIWVAFDIMCSTASILNLCVISVDRYWAISSPFRYERKMTPKAAFILISVAWTLSVLISFIPVQLSWHKAKPTSPSDGNATSLAETIDNCDSSLSRTYAISSSVISFYIPVAIMIVTYTRIYRIAQKQIRRIAALERAAVHAKNCQTTTGNGKPVECSQPESSFKMSFKRETKVLKTLSVIMGVFVCCWLPFFILNCILPFCGSGETQPFCIDSNTFDVFVWFGWANSSLNPIIYAFNADFRKAFSTLLGCYRLCPATNNAIETVSINNNGAAMFSSHHEPRGSISKECNLVYLIPHAVGSSEDLKKEEAAGIARPLEKLSPALSVILDYDTDVSLEKIQPITQNGQHPT | failed |
| MRVAIAGAGAVGRSIAGELLENGHEVLLIDKAPTAISVERVPMAEWLLADACEITSLDEAALQRCNVVIAATGDDKVNLVVSLLAKTEYGVPRVVARVNNPKNEWLFNESWGVDVAVSTPRLMSALVEEAVSVGDLVRLLRFSHGDANLVELTLPEESALAGTQVGDVQWPEDTSLVTIIRGTRVLTPSREDSLEAGDELLFVAAQAREEQLEDLLSARRQPDGTL | failed |
| MRVAVVGATGAVGREILKVLEARNFPLSELRLYASPRSAGVRLAFRGEEIPVEPLPEGPLPVDLVLASAGGGISRAKALVWAEGGALVVDNSSAWRYEPWVPLVVPEVNREKIFQHRGIIANPNCTTAILAMALWPLHRAFQAKRVIVATYQAASGAGAKAMEELLTETHRFLHGEAPKAEAFAHPLPFNVIPHIDAFQENGYTREEMKVVWETHKIFGDDTIRISATAVRVPTLRAHAEAVSVEFARPVTPEAAREVLKEAPGVEVVDEPEAKRYPMPLTASGKWDVEVGRIRKSLAFENGLDFFVVGDQLLKGAALNAVQIAEEWLKGA | not failed |
| MRVCAVVVTYNRKDLLVECLEALRRQTGPLDAIYIIDNASTDGTPELLRSRGYRDGAVIENPLDGSEIVIRYVRLPVNTGGAGGFHEGVKRAFHDGYDWIWLMDDDAEPLPDSLQGLLRYADDDTAALANLKVSPDGRPQYIHRGFFDFDSFGTFVRPVTEDDLREETLEIDHASFVGILINSDSVREIGFPRKEFFLHYDDVEYCLRLRSTGKIILVPGSLILHKEAAERGNLTKGLFGREIPVVPYDKLWLRYYGVRNSIWLRRKEMGRARLFIFMVRAILLSVAAQIITGIREKPFRRVRFILSAYSDGLRGRFDNEKPRRILYG | failed |
| MRVFLCGPLASDGLRQRVLGSAPDGVPARLADHALGAAGATVSPMPAPGASVAGLVMELGAEAGARLLHYQTATGHEARTLAVAGAPALVFFAPPEGLEPWDEAAWGALWGPIVVATAGDVMALWPEVPAERIARRYRLMLVQGASRVRAAADPGPARRRHAAQPGDVRIVRRSQPYANFFAVEEYDLSFRSFGGGMSPTLNRAVFISGDAVTVVPYDPVRDRVLLIEQFRPGPLGRGDAQPWLLEPIAGRVDPGETPEAAARREAVEEAGLDLGALLPVASYYPTPAAKAEYLYSYVALAQLDDGIEGIFGMEGEGEDIRGHLMSFDEMMALIRSGEICNGPLLLTALWLDRERPRLRGE | failed |
| MRVGIKVLGCPKNEADCEVLAGVLREGGHEIVFDVKDADVVVLDTCAFIEDAKRESIDEIFSFVDAKDQYGYKLVVKGCLVQRYYEELKKEIPEVDQWIGVADPEEIANAIENGTDLVPDQPETVYRYRKRIDLEERPYAYVKISDGCDRGCTFCSIPSFKGSLRSRSIEDITREVEDLLKEGKKEIILVAQDTTSYGIDLYRKQALPDLLRRLNSLNGEFWIRVMYLHPDHLTEEIISAMLELDKVVKYFDVPVQHGSDKILKLMGRTKSSEELKKMLSSIRERFPDAVLRTSIIVGFPGETEEDFEELKQFVEEIQFDKLGAFVYSDEEGTVAFNLKEKVDPEMAKRRQEELLLLQAEISNSRLDRFVGKKLKFLVEGKEGKFLVGRTWTEAPEVDGVVFVRGKGKIGDFLEVVIKEHDEYDMWGSVILEHHHHHH | not failed |
| MRVISRRTSLILFSGLVFVLASMLLYLYLNSGSEQTQTYNESRDLIRQLKQQDAVWENEVLKARVAVSHNYDPLVIPLKEMKRLWARFDRREAEQGRDESDQWRDAHDGFLSAFGEKARLVEQFKSHNALLRNSLAFLPTAEDGIQAQINTMLAPNRQEVHVFVTDTYDLLLSALEFAQVTSVERAAEIEVGLGNLAVNTENLPKEFQTPLNLLSNHVALILREQPVVNRLLEQIEAIPVAERLDTITSLLDRDQQQVEKINRKNHLYTLWLSGLLMFSVICLAALLVRSFAEVRRVNNALQSANDVLEQRVEERTLALRNAQSELFNAARQAGMAEIATNVLHNVGNVLNSVNTSSDLIARTLRSSKTQGLGKAMQLFREHATDIGRFLDEDPRGRLLPGYLNQLTEAIADEQKEMAIELERMNKSIDHIKEVVATQQSYAGAKNVPEPLSVNDLVEDALRMNAGALTRHQVRVVRDFADLPLVMGDRHRLLLILINLISNAKYAMSGPGSDPRTMILRTRIVEGGLLEMSVLDEGEGIAPENLQKIFAHGFTTRKDGHGFGLHSCALAAIEMNGHLTAHSDGPGLGAVFTLRIPLIAVTEPA | failed |
| MRVLVLHSHPVEESYGKALYRQTVESLQKAGHMVDGCDLYEERFDPVLSRHDRLAYHDYPENLKLVESHVERLKAAEGLVICTPIWNFGFPAILKGYFDRVWLPGVSFELVNGKVESRLRHIRKLAAVLTYGATPFRAFAAGNPPKKIVKRVLRAQINPVRPVTFLAHYDMNNCTPETRAKFLARVGGAMERF | failed |
| MRVPLDEIDKKIIKILQNDGKAPLREISKITGLAESTIHERIRKLRESGVIKKFTAIIDPEALGYSMLAFILVKVKAGKYSEVASNLAKYPEIVEVYETTGDYDMVVKIRTKNSEELNNFLDLIGSIPGVEGTHTMIVLKTHKETTELPIK | not failed |
